Data reported in the nanobody polyreactivity screen of Harvey et al. (2022).

Experiment: yeast display, Sf9 membrane polyspecificity reagent, FACS + sequencing; frameworks hold sequencing errors
Outline: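 Nanobodies came from a synthetic yeast display library in Saccharomyces cerevisiae BJ5465, induced with galactose for 36–48 hours and stained for 1 hour at 4 °C with 10% biotinylated, detergent-solubilized Sf9 membrane reagent. Cells were enriched on streptavidin microbeads and then FACS-sorted, with low and high (top ~1%) gates set on anti-HA fluorescence for expression and streptavidin fluorescence for reagent binding. Each polyreactivity label reflects the gate a clone came from. Genes were amplified by colony PCR, sequenced by MiSeq 2 × 250 and filtered by CDR length.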

Row | Sequence | polyreactivity (PSR sort gate)
1 | QVQLVESGGGLVQAGGSLRLSCAASGRIFSEYALGWYRQAPGKERELVAAITRRGGSTYYADSVKGRFTISRYNAKNTVYLQMNSLKPEDTAVYYCNALLTGGYQDSYPADYWGQGTQVTVSS | high polyreactivity
2 | QVQLVESGGGLVQAGGSLRLSCAASGRTFSKNTMGWYRKAPGKERELVASITRRGGSTYYADSVKGRFTISRDNAKNTVYLQMKSLKPEDTAVYYCAVRWRDYRGSYRGFEYWGQGTQVTVSS | high polyreactivity
3 | QVQLVESGGGLVQAGGSLRLSCGASGFTIQRNAIVWSRQAPGKERELVAAITRGGSTYYADSVKGRFTISRDNAKNTVYLQMNSLKPEDTAVYYCAKRIFSSYIGYGYWGQGTQVTVSS | high polyreactivity
4 | QVQLVESGGGLVQAGGSLRLSCAASGFTFWYYAMGWYRQAPGKERELVASISASGGRTNYADSVKGRFTISRDNAKNTVYLQMNSLKPEDTAVYYCAACRVRYSYGYPYYYWGQGTQVTVSS | high polyreactivity
5 | QVQLVESGGGLVHAGGSHRLSCAASGSIFPYYTMGWYRQAPGKEREMVAAISGSGTSTYYADSVKGRFTISRDNAKNTVYLQMNSLKPEDTAVYYCAADFRYYVTSLKYDYWGQGTQVTVSS | low polyreactivity
6 | QVQLVESGGGLVQAGGSLRLSCAASGRTFKYNAMGWSRPAPGKERELVAAISWSGGRTYYADSVKGRFTISRDNAKNTVYLQMNSLKPEDTAVYYCAAGVFKKYRPSGRYYYWGHGTQVTVSS | high polyreactivity
7 | QVQLVESGGGLVQAGGSHRLSCAASGRIFPSYAMGWYRQAPGKQRELVAAISKYGGRTYYADSVKGRFTISRDNAKNTVYLQMNSLKPEDTEVYYCAADGFRYYSWTRFSYYSGYDYWGQGSQVTVSS | high polyreactivity
8 | QVQLVESGGGLVQAGGSLRLRCAASGRIFRSYAMGWYRQAPGKEWEMVAAITSGTRTNYADSVKGRCTISRDNAKNTVYLQMNSLKPEDTAVSYCAARGSGFPPYRTRNYWGQGTQVTVSS | high polyreactivity
9 | QVQLVESGGGLVQAGGSLRLSCAASGRIFWYNAMGWYRPAPGKERELVASITRGNNTYYADSVKGRFTISRDNAKTTVYLQMNSLKPEDTAVYYCAKRYIYRYYWGQGTQVTVSS | high polyreactivity
10 | QVQLVESGGGLVQAGGSLRLSCAATGTFRRYAMGWYRQAPGKERELVAAITRNGGSTYYADSVKGRFTISRDNAKNTVYLQMNSLKPEDTAVYYCAAGLFWGGFRQWTDHHFDCDYYWGQGTQVTVSS | high polyreactivity
11 | QVQLVESGGGLVQAGGSLRLSCAASGSTFVDNAMGWYRQAPGKERELVAAISTRGGTTYYADSVKGRFTISRDNAKNTVYLQMKSLKAEDTAVYYCAAEIFTSVWWRWVDGDYWGQGTQVTVSS | high polyreactivity
12 | QVQLVESGGGLVQAGGSLRLSCAASGRIFHWYAMGWYRQAPGKERELVAAIRWTGGSTYYADSVKGRFTISRDNAKNTVYLQMNSLKREDTAVYYCAAKGYTGIFYEMDYWGQGTQVTVSS | low polyreactivity
13 | QVQLVESGGGLVQAGGSLRLSCAASGSIFERYTMGWYRQAPGKERELVAAISRSGGRTYYADSVKGRFTISRDNAKNTVYLQMNSLKPEDTAVYYCARTRVASKGYDYWGQGTQVTVSS | high polyreactivity
14 | QVQLVESGGGLVQAGGSLRLSCAASGSTFHWYDMGWYRPAPGKERELVAGINSSGDGTYYADSVKGRFTISRDNAKNTVYLQMNSLKPEDTAVYYCAAEYYTYWGYEDDYWGQGTQVTVSS | low polyreactivity
15 | QVQLVESGGGLVQAGGSLRLSCAASGRTFTRYTMGWYRQAAGKERELVAAISYSGGSTYYADSVKGRFTISRDNAKNTVYLQMNSLKPEDTAVYYCAAASVRWPGYDYWGQGTQVTVSS | high polyreactivity
16 | QDQLVESGGGLVQAGGSLRLSCAASGSTSRTYAMGWYRQAPGKERELVAAINSGGTTYYADSVKGRFTISRDNAKNTVYLQMNSLKPEDTAVYYCARRDFWWSLRIFGYWGQGTQVTVSS | high polyreactivity
17 | QVQLVESGGGLVQAGGSLRLSCSASGIIFRSYAMGWYRQAPGKERELVAAITGGGTTNYADSVKGRFTISRDNAKNTVYLQMNRLKPEDTAVYYCNAGLDWFWFNEMDYWGQGTQVTVSS | low polyreactivity
18 | QVQLVESGGGLVQAGGSLRLSCAASGRTFYLNAMGWYRQAPGKERELVATISYTGDTTYYADSVKGRFTISGDNALNTVYLQMNSLKPEDTAVYYCAALPSRPRGYDYWGQGTQVTVSS | high polyreactivity
19 | QVQLVESGGGLVQAGGSLRLSCAPSGHIFLQNAMGWYRQAPGKERELVAGITYSDTSTYADSVKGRFTISRDNAKNTVYLQMNSLKPEDTAVYYCEYYYWGQGTQVTVSS | low polyreactivity
20 | QVQLVASGGGLVQAGGSLRLSCAASGSIFTHNALGWSRQAPGNERALVAAISSGGSTNYADSVKGRFTISRDNAKNTVYLQMNSLKPEDTAVYYCAKSIDGWYWRRRRYDYWGQGTQVTVSS | low polyreactivity
21 | QVQLVESGGGLVQAGGSLRLSCAASGFTFHYYAMGWYRQAPGKERELVAAISSSGGNTYYADSVKGRFTISRDNAKNTVYLQMNSLKPEDTEVYYCNAYSFFLGGYDYWGQGTQVTVSS | high polyreactivity
22 | QVQHVESVGGLVQAGGSLRLSCAPSGSIFWDNAMGWYRQAPGKERELVAAITSSGDTTYYADSVKGRFTISRDNAKNTVYLQMNSLKQEDTAVYYCAKVFGPTDYLTGTFKGDYWGQGTQVTVSS | low polyreactivity

Row | Sequence | polyreactivity (PSR sort gate)
23 | QVQLVESGGGLVQAGGSLRLSCAASGSIFPGYAMGWYRQAPGKERELVATITWSGGSTYYADSVKGRFTISRDNAKNTVYLQMNSLKPVDTAVYYCNADSNWYYQWNYYGLYDYWGQGTQVTVSS | low polyreactivity
24 | QVQLVESGGGLVQAGGSLRLSCAASGRTFQTNAMGWYRQAPGKERELVAAISSTGGSTYYADSVKGRFTISRDNAKNTVYLQMNRLKPEDTAVYYCNAGRTYRYDYWGQGTQVTVSS | high polyreactivity
25 | QVQLVESGGGLVQAGGSLRLSCAASGYIFGHYTMGWYRQAPGKERELVAGISSGGITYYADSVKGRFTISRDNAKNSDYLQMNSLKPEDTAVYYCAAYWRRRLDYYYWGQGTQVTVSS | high polyreactivity
26 | QVQLVESGGGIVQAGGSLRLSCAASGFTFYLYAMGWYRQAPGKERELVAAISRSGGYTYYADSVKGRFSISRDNAQNTVYLQMNSLKPEDTAVYYCNARWRSGPRAYDYWGQGTQVTVSS | high polyreactivity
27 | QDQIVESWGGLVQSGGSLRLTCAASGRTFSTYAMGWYRQAPGKERELVAAISWRGARTYYADSVKGRFTISRDNAKNTVYLQMNSLKPEDTAVYYCAAAPYRYRRYEYWGQGTQVTVSS | high polyreactivity
28 | QVQLVESGGGLVQAGGSLRLSCAASGRTFIKYAMGWYRQAPGKERELVAAITYSAGSTSYADSVKGRFTISRDNAKNTVYLQMNRLKPEDTAVYYCARRTRSYGYRSDYYYWGQGTQVTVSS | low polyreactivity
29 | QVQLVESGGGLVHAGGSLSLSCAASGIIFPWYTMGWYRKAPGKERELVAAISSGGRTNYADSVKGRFTISRDNATNTVFLQMNSLKQEDTAVYYCGAKYYRDRDWGQGTQVTVSS | high polyreactivity
30 | QVQLVESGGGLVQAGGSLRLSCAASGFTIFSYAMGWYRQAPGKERELVAAISRRGGSTYYADSVKGRFTISRDNAKNTVYLQMNSLKPEDTAVYYCAAGPRWHTNGWAYDYWGQGTQVTVSS | high polyreactivity
31 | QVQLVESGGGLVQAGGSLRLSCAASGITFYLYAMGWYRQAPGKERELVAAISRGGSTNYADSVKGRFTISRDNAKNTVYLQMNSLKPEDTAVYYCAAVDRYGFGYWGQGTQVTVSS | high polyreactivity
32 | QVQLVESGGGLVQAGGSLRLSCAASGRIFYWYAMGWYRQAPGKEREFVAAITSSGGSTYYADSVKGRFTISRDNAKNTVDLQMNSLKPEDTAVYYCAARNPYYTSRGYWGQGTQVTVSS | high polyreactivity
33 | QVQLVESGGGLVQAGGSLRLSCAASGFTFYKYTMGWYRQAPGKERELVAAIRSSGGRTYYADSVKGRFTISRDNAKNTVYLQMNSLKPEDTAVYYCNAVVDRLIFWQFDYWGQGTQVTVSS | high polyreactivity
34 | QVQLVESGGGLVQAGGSLSLSCAASGRIFSWYDMGWYRQAPGKERELVAAISSGGSTKYADSVKGRFTISRDNAKNTVYLQMNCLKPEDTAVYYCAARLPRRYTREGYWGQGTQVSVSS | high polyreactivity
35 | QVQLVESGGGVVQAGGRLRLSCSASGRTFPWYAMGWSRQEPGKEREVVAAITQSGGSTYYADSVKGRFTISRDNANNTVYLQMNSLKPEDTAGFYCAVASVNTVFYGQDHYYYDYGYWGQGTHVTVSS | low polyreactivity
36 | QVQHVESGGGLVQAGGSLRLSCAASGSIFIPYAMGWSRQPPGKERELVAAISWSGSSTYYADSVKGRFTISRDNAKNTVYLQMISLKPEDTAVYYCAAYNAYRRGYDYWGQGTQVTVSS | high polyreactivity
37 | QVQLVESGGGLVQAGGSLRLRCAASGSTFTGNTMGWYRQAPGKERELVAAITYRGGSTYYADSVKGRLTISRDNAKNTVYLQMNSLKPEDTAVYYCAAAGYYYSVEGAGPRYDYWGQGTQVTVSS | low polyreactivity
38 | QVQLVESGGGLVQAGGSLRLSCAASGRTFVTYGMGWYRQAPGKERELVATIRSGTTTNYADSVKGRFTISRDNAKNTVYLQMNSLKPEDTAVYYCNARGLRASSRRYYYWGQGTQVTVSS | high polyreactivity
39 | QVQLVESGGGLVQAGGSLRLSCAASGSTFSLYAMGWYRQAPGKERELVARISYTDGSTYYADSVKGRFTISRDNAKNTVYLPMNSLKPEDTAVYYCAADAWYSYTLEDSWGQGTQVTVSS | low polyreactivity
40 | QVQLVESGGGLDQAGGSLRLSCAAYGSTFTYQSMGWYRQATGKERELVAAITWSSDITYYADSVKGRFTISRDNAKSTVYLQMNSLKPEDTAVYYCAADGVTRDYVYWGQGTQVTVSS | low polyreactivity
41 | QVQLVESGGGLVQAGGSLRLSCAASGSNFNNNAMGWYRQAPGKERELVASISLSAGSTYYADSVKGRFTISRDNAKNTVYLQMNSLKPEDTAVYYCAAEVGYWGYQISGDYWGQGTQVTVSS | low polyreactivity
42 | QVQLVESGGGLVQAGGSLRLSCAASGSILWLYVMGWYRQAPGKERELVATITSSGGSTYYADSVKGRFTISRDNAKNTVYLQMNSLKPEDTAVYYCAAQTYYSYDYWGQGTQVTVSS | low polyreactivity
43 | QVQLVESGGGLVQEGGSLRLSCAASGSTFRTYAMGWYRQAPGKERELVAAISGDTSTNYADSVKGRFTISRDNAKNTVYLQMNSLKPEDTAVYYCAAYWTTYATLWYDYWGQGTQVTVSS | low polyreactivity
